The labels stand for the following.
B1: Cytochrome c-551, P00099 (parent)
chain: MKPYALLSLLATGTLLAQGAWAEDPEVLFKNKGCVACHAIDTKMVGPAYKDVAAKFAGQAGAEAELAQRIKNGSQGVWGPIPMPPNAVSDDEAQTLAKWVLSQK

The variants in the series derive from B1. To be noted: Pseudomonas aeruginosa (strain ATCC 15692 / DSM 22644 / CIP 104116 / JCM 14847 / LMG 12228 / 1C / PRS 101 / PAO1); pH 7; 10 °C; GdnHCl; Fluorescence; sodium phosphate 50 mM; reversible: yes; structure 451C; whole UniProt chain shown.

In the case of MKPYALLSLLATGTLLAQGAWAEDPEVLFKNKGCVACHAIDTKMVGPAYKDVAAKFAGQAGAEAELAQRIKNGSQGVWGPIPMPPNAVSDDQAQTLAKWVLSQK [E92Q], the “ddG of mutation (higher = less stable)” value is -0.2 kcal/mol, the denaturant m value was 3.4 kcal/mol/M, the “denaturant midpoint (higher = more stable)” value is 1.8 M and the unfolding free energy amounted to 6.3 kcal/mol.

In the case of MKPYALLSLLATGTLLAQGAWAEDPEVLFKNKGCVACHAIDTKMVGPAYKDVAAKFAGQAGAEAELAQRIKNGSQGVWGPIPMPPNAVSDDVAQTLAKWVLSQK [E92V], the “ddG of mutation (higher = less stable)” value is 0.3 kcal/mol, the denaturant m value turned out to be 3.3 kcal/mol/M, the “denaturant midpoint (higher = more stable)” value amounted to 1.8 M and the unfolding free energy came to 5.8 kcal/mol.

Values taken from FireProtDB (doi:10.1110/ps.5101).
